Here are results for nine molecules from patent US20090311784A1 (WISCONSIN ALUMNI RESEARCH FOUNDATION, published 2009).

To fix the notation:
T1: human ribonuclease inhibitor (human, UniProt P13489 2-461)
T1 construct: also called hRI; hR1
T1 sequence: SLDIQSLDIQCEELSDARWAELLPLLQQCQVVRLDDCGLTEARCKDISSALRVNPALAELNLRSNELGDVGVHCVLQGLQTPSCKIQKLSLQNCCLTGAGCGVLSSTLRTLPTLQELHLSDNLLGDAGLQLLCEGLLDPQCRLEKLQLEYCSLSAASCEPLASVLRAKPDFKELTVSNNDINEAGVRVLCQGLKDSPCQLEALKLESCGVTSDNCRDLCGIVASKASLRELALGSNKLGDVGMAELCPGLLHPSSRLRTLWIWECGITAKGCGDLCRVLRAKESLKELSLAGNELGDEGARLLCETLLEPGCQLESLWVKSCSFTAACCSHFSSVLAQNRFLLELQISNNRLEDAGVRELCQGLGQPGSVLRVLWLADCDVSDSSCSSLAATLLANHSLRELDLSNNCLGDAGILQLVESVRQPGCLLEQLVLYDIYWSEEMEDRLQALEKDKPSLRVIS

B1: fluorescein-labeled G88R RNase A (enzyme)
chain: KETAAAKFERQHMDSSTSCASSSNYCNQMMKSRNLTKDRCKPVNTFVHESLADVQAVCSQKNVACKNGQTNCYQSYSTMSITDCRETRSSKYPNCAYKTTQANKHIIVACEGNPYVPVHFDASV
modifications: fluorescein on Cys19 (F*-A19C)
notes: also called F*-A19C G88R RNase A; fluorescently-labeled G88R RNase A
B2: G38R/R39G/N67R/N88R RNase 1 (enzyme)
chain: KESRAKKFQRQHMDSDSSPSSSSTYCNQMMRRRNMTQRGCKPVNTFVHEPLVDVQNVCFQEKVTCKRGQGNCYKSNSSMHITDCRLTRGSRYPNCAYRTSPKERHIIVACEGSPYVPVHFDASVEDST
notes: Made by site-directed mutagenesis and purified like wild-type RNase 1
B3: R39D/N67D/G89D/R91D RNase 1 (enzyme)
chain: B2 chain with R38G, G39D, R67D, R88N, G89D, R91D
B4: R39D/N67D/N88A/G89D/R91D RNase 1 (enzyme)
chain: B2 chain with R38G, G39D, R67D, R88A, G89D, R91D
B5: N67D/N88A/G89D/R91D RNase 1 (enzyme)
chain: B2 chain with R38G, G39R, R67D, R88A, G89D, R91D
B6: R39L/N67L/N88A/G89L/R91L RNase 1 (enzyme)
chain: B2 chain with R38G, G39L, R67L, R88A, G89L, R91L
B7: R39D/N88A/G89D/R91D RNase 1 (enzyme)
chain: B2 chain with R38G, G39D, R67N, R88A, G89D, R91D
B8: R39D/N67D/N88A/G89D RNase 1 (enzyme)
chain: B2 chain with R38G, G39D, R67D, R88A, G89D
B9: R39D/N67D/N88A/R91D RNase 1 (enzyme)
chain: B2 chain with R38G, G39D, R67D, R88A, R91D

Residue numbers refer to the chain shown, from its start. Numbers in names are those of the source.

The first test concerns the target T1, human ribonuclease inhibitor. The test can be described thus: constant used in the fluorescence competition assay. The text has this:
(§1) Values for Kd were obtained by nonlinear least-squares analysis of the binding isotherm using the program […] 5.5 (Red Rock Software, Salt Lake City, Utah).
B1: the Kd – broadly, the constant that tells how readily two partners part at equilibrium – was 1.4 nM.

The next test has the same target. Kind of test: calculated from Kd: ΔΔG = -RTln(Kd wild-type/Kd variant).
Description: as §1
Turning to B2, the ΔΔG was 3 kcal/mol.
On to B3, for which the ΔΔG is 9.1 kcal/mol.
With B4, the ΔΔG is 9.5 kcal/mol.
As to B5, the ΔΔG is 7.3 kcal/mol.
Consider B6, for which the ΔΔG was 7.1 kcal/mol.
With B7, the ΔΔG was 7.6 kcal/mol.
Consider B8, for which the ΔΔG is 6.7 kcal/mol.
Turning to B9, the ΔΔG is 8.4 kcal/mol.

A further test has the same target. Kind of test: ΔΔG of R39D/N67D/N88A/G89D/R91D RNase 1 minus ΔΔG of this variant.
Description: as §1
With B3, the ΔΔΔG was found to be 0.4 kcal/mol.
Take B5: the ΔΔΔG stood at 2.2 kcal/mol.
The same measure, in the same setting: the value for B6 was 2.4 kcal/mol.
On the same count and under the same terms, to B7 belongs 1.9 kcal/mol.
On to B8, for which the ΔΔΔG was 2.8 kcal/mol.
The same measure, in the same setting: the value for B9 was 1.1 kcal/mol.

The target is the same in the next test. Kind of test: fluorescence competition assay with fluorescein-labeled G88R RNase A for hRI.
Description: as §1
Data points are the mean (±SE) of at least three separate measurements.
B3 yielded a Kd of 1000 nM.
For the molecule B6, the Kd is 30 nM.
